# Measured values from IntAct's records for PubMed 18458160.
# B1: KN motif and ankyrin repeat domain-containing protein 1 (Homo sapiens), Q14678-2 (parent)
# chain: METRRRLEQERATMQMTPGEFRRPRLASFGGMGTTSSLPSFVGSGNHNPAKHQLQNGYQGNGDYGSYAPAAPTTSSMGSSIRHSPLSSGISTPVTNVSPMHLQHIREQMAIALKRLKELEEQVRTIPVLQVKISVLQEEKRQLVSQLKNQRAASQINVCGVRKRSYSAGNASQLEQLSRARRSGGELYIDYEEEEMETVEQSTQRIKEFRQLTADMQALEQKIQDSSCEASSELRENGECRSVAVGAEENMNDIVVYHRGSRSCKDAAVGTLVEMRNCGVSVTEAMLGVMTEADKEIELQQQTIESLKEKIYRLEVQLRETTHDREMTKLKQELQAAGSRKKVDKATMAQPLVFSKVVEAVVQTRDQMVGSHMDLVDTCVGTSVETNSVGISCQPECKNKVVGPELPMNWWIVKERVEMHDRCAGRSVEMCDKSVSVEVSVCETGSNTEESVNDLTLLKTNLNLKEVRSIGCGDCSVDVTVCSPKECASRGVNTEAVSQVEAAVMAVPRTADQDTSTDLEQVHQFTNTETATLIESCTNTCLSTLDKQTSTQTVETRTVAVGEGRVKDINSSTKTRSIGVGTLLSGHSGFDRPSAVKTKESGVGQININDNYLVGLKMRTIACGPPQLTVGLTASRRSVGVGDDPVGESLENPQPQAPLGMMTGLDHYIERIQKLLAEQQTLLAENYSELAEAFGEPHSQMGSLNSQLISTLSSINSVMKSASTEELRNPDFQKTSLGKITGNYLGYTCKCGGLQSGSPLSSQTSQPEQEVGTSEGKPISSLDAFPTQEGTLSPVNLTDDQIAAGLYACTNNESTLKSIMKKKDGNKDSNGAKKNLQFVGINGGYETTSSDDSSSDESSSSESDDECDVIEYPLEEEEEEEDEDTRGMAEGHHAVNIEGLKSARVEDEMQVQECEPEKVEIRERYELSEKMLSACNLLKNTINDPKALTSKDMRFCLNTLQHEWFRVSSQKSAIPAMVGDYIAAFEAISPDVLRYVINLADGNGNTALHYSVSHSNFEIVKLLLDADVCNVDHQNKAGYTPIMLAALAAVEAEKDMRIVEELFGCGDVNAKASQAGQTALMLAVSHGRIDMVKGLLACGADVNIQDDEGSTALMCASEHGHVEIVKLLLAQPGCNGHLEDNDGSTALSIALEAGHKDIAVLLYAHVNFAKAQSPGTPRLGRKTSPGPTHRGSFD
# partner: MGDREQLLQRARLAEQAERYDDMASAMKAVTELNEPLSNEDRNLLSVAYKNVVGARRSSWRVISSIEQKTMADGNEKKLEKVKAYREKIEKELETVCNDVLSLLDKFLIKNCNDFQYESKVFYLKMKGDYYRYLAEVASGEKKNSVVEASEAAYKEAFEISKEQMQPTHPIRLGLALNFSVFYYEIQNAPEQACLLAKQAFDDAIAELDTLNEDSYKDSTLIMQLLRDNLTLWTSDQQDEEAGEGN
# B2: KN motif and ankyrin repeat domain-containing protein 1 (Homo sapiens), Q14678-2 (parent)
# chain: B1 chain
# partner: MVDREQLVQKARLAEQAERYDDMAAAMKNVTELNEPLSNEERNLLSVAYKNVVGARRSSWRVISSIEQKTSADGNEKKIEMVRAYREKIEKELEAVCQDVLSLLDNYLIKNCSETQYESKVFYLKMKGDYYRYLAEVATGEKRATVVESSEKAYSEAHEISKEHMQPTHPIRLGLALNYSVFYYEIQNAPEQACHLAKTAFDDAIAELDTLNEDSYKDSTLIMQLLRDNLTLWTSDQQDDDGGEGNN
# B3: KN motif and ankyrin repeat domain-containing protein 1 (Homo sapiens), Q14678-2 (parent)
# chain: B1 chain
# B4: KN motif and ankyrin repeat domain-containing protein 1 (Homo sapiens), Q14678-2 (parent)
# chain: B1 chain
# partner: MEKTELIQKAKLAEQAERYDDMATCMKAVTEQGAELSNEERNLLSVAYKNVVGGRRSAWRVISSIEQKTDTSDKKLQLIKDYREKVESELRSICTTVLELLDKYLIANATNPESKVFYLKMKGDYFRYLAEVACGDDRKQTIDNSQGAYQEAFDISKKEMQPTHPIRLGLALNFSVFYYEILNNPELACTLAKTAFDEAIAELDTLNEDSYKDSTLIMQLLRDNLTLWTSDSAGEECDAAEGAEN
# B5: KN motif and ankyrin repeat domain-containing protein 1 (Homo sapiens), Q14678-2 (parent)
# chain: B1 chain
# partner: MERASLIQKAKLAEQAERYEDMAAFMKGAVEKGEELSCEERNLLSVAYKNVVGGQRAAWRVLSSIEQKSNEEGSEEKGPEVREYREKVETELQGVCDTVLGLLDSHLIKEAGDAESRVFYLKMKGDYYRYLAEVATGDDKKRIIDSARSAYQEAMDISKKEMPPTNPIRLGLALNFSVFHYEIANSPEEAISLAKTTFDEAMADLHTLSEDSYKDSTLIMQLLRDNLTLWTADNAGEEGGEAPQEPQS
# Variants of: B1
# Conditions: with 1433f_human YWHAH
row,Variant,effect of a mutation on the interaction
1,S167A,disrupting interaction

# Variants of: B2
# Conditions: with 1433g_human YWHAG
row,Variant,effect of a mutation on the interaction
1,S167A,disrupting interaction

# Variants of: B3
# Conditions: with 1433z_human YWHAZ
row,Variant,effect of a mutation on the interaction
1,S167A,disrupting interaction

# Variants of: B3
# Conditions: with 1433e_human YWHAE
row,Variant,effect of a mutation on the interaction
1,S167A,disrupting interaction

# Variants of: B3
# Conditions: with 1433b_human YWHAB
row,Variant,effect of a mutation on the interaction
1,S167A,disrupting interaction

# Variants of: B4
# Conditions: with 1433t_human YWHAQ
row,Variant,effect of a mutation on the interaction
1,S167A,disrupting interaction

# Variants of: B5
# Conditions: with 1433s_human SFN
row,Variant,effect of a mutation on the interaction
1,S167A,disrupting interaction
